Read-outs that look alike come from different tables or passages of the source. Blank lines part the entries; values can stand above or below the binder they belong to.
Legend:
4H971-AA = target: T1, 4H971-AA; experiment: two-hybrid library CCmax; conditions: mean of both orientations;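 note: natural log of median RNA to DNA barcode read ratio; higher means stronger binding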
T1 chain: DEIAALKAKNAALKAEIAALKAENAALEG

4H656-AA = target: T2, 4H656-AA; experiment: two-hybrid library CCmax; conditions: mean of both orientations;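 note: natural log of median RNA to DNA barcode read ratio; higher means stronger binding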
T2 chain: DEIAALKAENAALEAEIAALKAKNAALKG

4H478-AA = target: T3, 4H478-AA; experiment: two-hybrid library CCmax; conditions: mean of both orientations;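 note: natural log of median RNA to DNA barcode read ratio; higher means stronger binding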
T3 chain: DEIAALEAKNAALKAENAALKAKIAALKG

4H428-AA = target: T4, 4H428-AA; experiment: two-hybrid library CCmax; conditions: mean of both orientations;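 note: natural log of median RNA to DNA barcode read ratio; higher means stronger binding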
T4 chain: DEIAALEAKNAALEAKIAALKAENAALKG

4H3920-AA = target: T5, 4H3920-AA; experiment: two-hybrid library CCmax; conditions: mean of both orientations;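 note: natural log of median RNA to DNA barcode read ratio; higher means stronger binding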
T5 chain: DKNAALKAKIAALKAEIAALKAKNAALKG

4H391-AA = target: T6, 4H391-AA; experiment: two-hybrid library CCmax; conditions: mean of both orientations;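 note: natural log of median RNA to DNA barcode read ratio; higher means stronger binding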
T6 chain: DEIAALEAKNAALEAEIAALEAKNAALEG

4H497-AA = target: T7, 4H497-AA; experiment: two-hybrid library CCmax; conditions: mean of both orientations
T7 chain: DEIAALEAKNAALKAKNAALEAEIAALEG

4H3709-AA = target: T8, 4H3709-AA; experiment: two-hybrid library CCmax
T8 chain: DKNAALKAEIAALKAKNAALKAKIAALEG

4H675-AA = target: T9, 4H675-AA; experiment: two-hybrid library CCmax; conditions: mean of both orientations
T9 chain: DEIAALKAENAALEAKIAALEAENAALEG

4H3939-AA = target: T10, 4H3939-AA; experiment: two-hybrid library CCmax; conditions: mean of both orientations
T10 chain: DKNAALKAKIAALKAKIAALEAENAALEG

4H968-bN = target: T11, 4H968-bN; experiment: two-hybrid library CCNG1
T11 chain: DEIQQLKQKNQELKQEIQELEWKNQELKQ

4H3666-AA = target: T12, 4H3666-AA; experiment: two-hybrid library CCmax
T12 chain: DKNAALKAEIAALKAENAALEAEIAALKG

APC9291-AA = target: T13, APC9291-AA; experiment: two-hybrid library CCmax; conditions: mean of both orientations
T13 chain: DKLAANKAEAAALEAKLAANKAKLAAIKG

APC9182-AA = target: T14, APC9182-AA; experiment: two-hybrid library CCmax; conditions: mean of both orientations
T14 chain: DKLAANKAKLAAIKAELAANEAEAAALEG

APC9806-AA = target: T15, APC9806-AA; experiment: two-hybrid library CCmax; conditions: mean of both orientations
T15 chain: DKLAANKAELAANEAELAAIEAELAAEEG

APC9141-AA = target: T16, APC9141-AA; experiment: two-hybrid library CCmax; conditions: mean of both orientations
T16 chain: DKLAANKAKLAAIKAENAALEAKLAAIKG

APC8516-AA = target: T17, APC8516-AA; experiment: two-hybrid library CCmax
T17 chain: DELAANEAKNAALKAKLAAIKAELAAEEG

GCN2_T = experiment: two-hybrid library CCmax
O13-AA = target: T18, O13-AA; experiment: two-hybrid library CCmax; conditions: mean of both orientations
T18 chain: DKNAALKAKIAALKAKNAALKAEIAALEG

4H_APH = target: T19, 4H_APH; experiment: two-hybrid library CCmax
T19 chain: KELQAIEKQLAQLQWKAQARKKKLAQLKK

4H510-AA = target: T20, 4H510-AA; experiment: two-hybrid library CCmax; conditions: mean of both orientations
T20 chain: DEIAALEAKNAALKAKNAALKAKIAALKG

4H_BCR = target: T21, 4H_BCR; experiment: two-hybrid library CCmax; conditions: mean of both orientations
T21 chain: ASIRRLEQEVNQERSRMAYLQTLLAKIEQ

O14-AA = target: T22, O14-AA; experiment: two-hybrid library CCmax; conditions: mean of both orientations
T22 chain: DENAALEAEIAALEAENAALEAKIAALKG

O11-AA = target: T23, O11-AA; experiment: two-hybrid library CCmax; conditions: mean of both orientations
T23 chain: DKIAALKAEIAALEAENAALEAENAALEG

4H_GCN4 = experiment: two-hybrid library CCmax
4H_GCN4, sequence (chain, as listed by the source): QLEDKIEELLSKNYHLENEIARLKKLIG

4H953-bA = target: T24, 4H953-bA; experiment: two-hybrid library CCNG1
T24 chain: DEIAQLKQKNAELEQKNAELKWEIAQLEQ

4H968-bA = target: T25, 4H968-bA; experiment: two-hybrid library CCNG1
T25 chain: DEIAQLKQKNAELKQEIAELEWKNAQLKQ

4H918-bA = target: T26, 4H918-bA; experiment: two-hybrid library CCNG1
T26 chain: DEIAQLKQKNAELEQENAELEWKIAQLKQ

4H967-bA = target: T27, 4H967-bA; experiment: two-hybrid library CCNG1
T27 chain: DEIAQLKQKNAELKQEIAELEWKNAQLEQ

Binder: DEIQQLKQKNQELKQEIQELEWKNQELKQ [4H968-bN]
interaction score (4H968-bN): 0.264

Binder: DEIAALEAKNAALKAEIAALEAENAALEG [4H451-AA]
interaction score (GCN2_T): -0.954
interaction score (O13-AA): -1.74
interaction score (4H_APH): -1.88
interaction score (4H510-AA): -1.68
interaction score (4H_BCR): -1.98
interaction score (O14-AA): 0.209
interaction score (O11-AA): -1.9
interaction score (4H_GCN4): -1.53

Binder: DEIAQLKQKNAELEQENAELEWKIAQLKQ [4H918-bA]
interaction score (4H953-bA): 1.53
interaction score (4H968-bA): -0.293
interaction score (4H918-bA): 0.453
interaction score (4H967-bA): -0.684

The next lines start with the values.

interaction score (4H971-AA): -1.69
interaction score (4H656-AA): 0.489
interaction score (4H478-AA): -0.647
interaction score (4H428-AA): -2.58
interaction score (4H3920-AA): -1.81
interaction score (4H391-AA): -1.04
interaction score (4H497-AA): -1.73
interaction score (4H3709-AA): 0.066
interaction score (4H675-AA): 1.6
interaction score (4H3939-AA): -2.03
Binder: DKNAALKAEIAALKAKNAALKAKIAALEG [4H3709-AA]

interaction score (4H971-AA): 1.3
interaction score (4H656-AA): 0.306
interaction score (4H478-AA): 0.407
interaction score (4H428-AA): -1.27
interaction score (4H3920-AA): -1.45
interaction score (4H3666-AA): 0.925
interaction score (4H391-AA): -1.26
interaction score (4H497-AA): -1.84
interaction score (4H3709-AA; mean of both orientations): 1.48
interaction score (4H675-AA): -2.19
interaction score (4H3939-AA): -1.61
Binder: DKNAALKAEIAALKAENAALEAEIAALKG [4H3666-AA]

interaction score (APC9291-AA): -1.91
interaction score (APC9182-AA): -1.64
interaction score (APC9806-AA): -1.63
interaction score (APC9141-AA): -1.56
interaction score (APC8516-AA): -1.87
Binder: DELAANEAKNAALKAKLAAIKAELAAEEG [APC8516-AA]

Source: paper PMC10397247
